# T1: GST-αβ fusion protein (human, UniProt P52655 1-376)
# T1 construct: Bacterially expressed and fixed to glutathione sepharose beads; not shown: glutathione-S-transferase (GST), fusion partner
# T1 sequence (looked up): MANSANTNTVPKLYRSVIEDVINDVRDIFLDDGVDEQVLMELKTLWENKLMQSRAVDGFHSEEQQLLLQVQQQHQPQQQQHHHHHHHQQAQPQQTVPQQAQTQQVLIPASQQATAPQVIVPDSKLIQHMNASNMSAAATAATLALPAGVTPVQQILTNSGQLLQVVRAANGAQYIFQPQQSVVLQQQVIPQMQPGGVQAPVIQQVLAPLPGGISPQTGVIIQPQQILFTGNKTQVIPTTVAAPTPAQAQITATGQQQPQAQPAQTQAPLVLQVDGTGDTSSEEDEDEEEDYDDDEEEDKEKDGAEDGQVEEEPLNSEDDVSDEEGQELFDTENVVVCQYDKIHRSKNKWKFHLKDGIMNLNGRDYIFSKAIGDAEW
# B1: 35S-labelled TFIIA αβ (large subunit of human TFIIA) (other, UniProt P52655 1-376, looked up)
# chain: MANSANTNTVPKLYRSVIEDVINDVRDIFLDDGVDEQVLMELKTLWENKLMQSRAVDGFHSEEQQLLLQVQQQHQPQQQQHHHHHHHQQAQPQQTVPQQAQTQQVLIPASQQATAPQVIVPDSKLIQHMNASNMSAAATAATLALPAGVTPVQQILTNSGQLLQVVRAANGAQYIFQPQQSVVLQQQVIPQMQPGGVQAPVIQQVLAPLPGGISPQTGVIIQPQQILFTGNKTQVIPTTVAAPTPAQAQITATGQQQPQAQPAQTQAPLVLQVDGTGDTSSEEDEDEEEDYDDDEEEDKEKDGAEDGQVEEEPLNSEDDVSDEEGQELFDTENVVVCQYDKIHRSKNKWKFHLKDGIMNLNGRDYIFSKAIGDAEW
# modifications: 35S label
# notes: Made in reticulocyte lysate as 35S-labelled protein; also called αβ subunit; radiolabelled αβ
# Target: T1, GST-αβ fusion protein
# Assay: GST pull-down, 35S-labelled protein on glutathione sepharose beads, autoradiography
# Method: Bacterial extracts of GST or GST fusion proteins were incubated with glutathione sepharose-4B beads (6-9 μg of GST-fusion protein/20 μl of beads) with shaking at […]. After 2 hours the beads were washed with 50 column volumes of cold buffer A (20 mM NaH₂PO₄ (pH 7.0) 150 mM NaCl, 1 mM DTT, 1 mM PMSF). Washed beads (20 μl) were then incubated with reticulocyte lysates containing 2×10⁴ cpm of ³⁵S labelled protein in 300 μl of protein binding buffer (PBB) for 1 hour at room temperature. PBB contained 20 mM Hepes (pH 7.9), 20% glycerol, 0.5 mM EDTA, 60 mM KCl, 5 mM MgCl2, 0.1% NP40, and 5 mM β-mercaptoethanol. The beads were subsequently washed 4 times in PBB and labeled proteins were eluted with 1M KCl. Samples were analyzed on 15% SDS polyacrylamide gels, enhanced with NaSalycilate, and visualized by autoradiography.
binder,measurement,value
B1,binding result,no binding

# Source: patent US20020086396A1 (Human Genome Sciences, published 2002)
